From PMC12809078, “CtBP1/2 oligomerization promotes G9a-Mediated transcriptional repression” (The Journal of Biological Chemistry, 2025)
Substitutions are numbered along the chain they refer to.

T1: His6-MBP-G9a^641-1193 (WT) (human, UniProt Q96KQ7 641-1193)
T1 construct: G9a (EHMT2), human, residues 641-1193 (ANK, Pre-SET and SET domains); also called WT G9a; source: E. coli, purified
T1 sequence (looked up): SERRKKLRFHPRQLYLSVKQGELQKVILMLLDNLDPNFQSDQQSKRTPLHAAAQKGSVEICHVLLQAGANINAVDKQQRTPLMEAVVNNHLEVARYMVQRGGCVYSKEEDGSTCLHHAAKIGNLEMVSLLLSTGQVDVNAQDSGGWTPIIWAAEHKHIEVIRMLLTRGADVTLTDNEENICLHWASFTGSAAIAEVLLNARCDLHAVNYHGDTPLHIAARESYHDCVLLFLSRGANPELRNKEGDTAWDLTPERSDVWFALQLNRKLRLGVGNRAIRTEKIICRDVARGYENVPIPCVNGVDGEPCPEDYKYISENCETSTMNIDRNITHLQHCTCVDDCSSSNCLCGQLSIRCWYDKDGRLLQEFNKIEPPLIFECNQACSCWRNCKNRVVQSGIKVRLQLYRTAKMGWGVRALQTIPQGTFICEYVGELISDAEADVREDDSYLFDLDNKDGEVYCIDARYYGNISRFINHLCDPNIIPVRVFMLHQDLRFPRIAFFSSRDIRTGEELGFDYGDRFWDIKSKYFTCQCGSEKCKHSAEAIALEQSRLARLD

B1: SUMO-G9a (881–913)-FLAG (domain or fragment, human, UniProt Q96KQ7 881-913, looked up)
chain: NKEGDTAWDLTPERSDVWFALQLNRKLRLGVGN
notes: also called Pre-SET fragment; G9a Pre-SET domain; not shown: SUMO, N-terminal, kept; FLAG, C-terminal, kept
B2: full-length SUMO-CtBP2 (natural protein)
chain: not shown
notes: Named SUMO-CtBP2 in the pull-downs; also called SUMO-CtBP2-FL; CtBP2-FL; source: E. coli Rosetta 2 (DE3), purified (Ni-NTA); not shown: SUMO, N-terminal, kept
B3: SUMO-G9a^881–913-FLAG P892E (domain or fragment, human, UniProt Q96KQ7 881-913, looked up)
chain: B1 chain with P12E
notes: source: E. coli Rosetta 2 (DE3), purified; not shown: SUMO, N-terminal, kept; FLAG, C-terminal, kept
B4: SUMO-G9a^881–913-FLAG T891R (domain or fragment, human, UniProt Q96KQ7 881-913, looked up)
chain: B1 chain with T11R
notes: as for B3
B5: SUMO-G9a^881–1210-FLAG (domain or fragment, human, UniProt Q96KQ7 881-1210, looked up)
chain: NKEGDTAWDLTPERSDVWFALQLNRKLRLGVGNRAIRTEKIICRDVARGYENVPIPCVNGVDGEPCPEDYKYISENCETSTMNIDRNITHLQHCTCVDDCSSSNCLCGQLSIRCWYDKDGRLLQEFNKIEPPLIFECNQACSCWRNCKNRVVQSGIKVRLQLYRTAKMGWGVRALQTIPQGTFICEYVGELISDAEADVREDDSYLFDLDNKDGEVYCIDARYYGNISRFINHLCDPNIIPVRVFMLHQDLRFPRIAFFSSRDIRTGEELGFDYGDRFWDIKSKYFTCQCGSEKCKHSAEAIALEQSRLARLDPHPELLPELGSLPPVNT
notes: G9a (EHMT2), human, residues 881-1210; also called CD; G9a C-terminal catalytic domain; not shown: SUMO, N-terminal, kept; FLAG, C-terminal, kept

What was measured:
Conditions in all cases: both partners purified
CtBP2 (residues 31–364) = target: T2, CtBP2 (residues 31–364) (human, UniProt P56545 31-364); test: pull-down; FLAG-tagged G9a (or GLP) fragments immobilised on anti-FLAG resin, incubated with CtBP protein 2 h at 4 °C; 50 mM Tris-HCl pH 8.0, 150 mM NaCl, 2 mM DTT, 0.1% NP-40; eluted with FLAG peptide, SDS-PAGE
T2 construct: Tag-free by the methods; source: E. coli Rosetta 2 (DE3), purified (Ni-NTA, SUMO protease, SEC; ion exchange and gel filtration for crystals); not shown: His6, N-terminal, cleaved; SUMO, N-terminal, cleaved

full-length SUMO-CtBP1 = full-length SUMO-CtBP1 (human, UniProt Q13363 1-440); test: as above
full-length SUMO-CtBP2 = target: B2; test: as above
[1] = target: T1, His6-MBP-G9a^641-1193 (WT); test: pull-down; MBP pull-down of His6-MBP-G9a(641-1193) WT or Δ885–893 with full-length CtBP2; same procedure as the FLAG pull-down with the respective affinity resin

binding result (CtBP2 (residues 31–364)) | binding result (full-length SUMO-CtBP1) | binding result (full-length SUMO-CtBP2) | binding result [1] | Binder
binds | binds | binds |  | B1
 |  |  | binds | B2
 |  | binds |  | B3
 |  | binds |  | B4
 |  | binds |  | B5
